This is an account of results in PMC10994853.

The target of this experiment is SkpA (Fjoh_1689) (Flavobacterium johnsoniae (endogenous)). Nature of the experiment: cryo-EM structure; Extended Translocon, peak I of Twin-strep–SprA complexes from a ΔgldL background (also seen at 4.3 Å from ΔgldM peak I); assembled in vivo, in LMNG.

With SkpA (Fjoh_1689) (natural protein), the stoichiometry N – broadly, the number of molecules, sites or subunits per partner or assembly – turned out to be 3.
